This assay has as its target human Fn14 (full length) on cells (human) (UniProt Q9NP84). Nature of the assay: cell-based or functional assay.

Chain of human Fn14 (full length) on cells (human) (Q9NP84 28-129): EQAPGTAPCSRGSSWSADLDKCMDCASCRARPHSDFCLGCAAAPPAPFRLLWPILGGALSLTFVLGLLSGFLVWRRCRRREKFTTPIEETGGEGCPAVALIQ

B1: ITEM-4 commercial anti-Fn14 monoclonal antibody (antibody, from another filing, V domains shown)
VH: QVQLQQSGPELVKPGASVKMSCKASGYTFTDFIIAWVKQRTGQGLEWIGEIYPGTGRTYYSEKFRGKATLTADKSSNTAYMQLSSLTSVDSAVYFCARRTIYYDYDGDYWGQGTTLTVSS
VL: DIVMTQAAFSNPVTLGTSASISCRSSKSLLHSNGITYLYWYLQKPGQSPQLLIYQMSNLASGVPDRFSSSGSGTDFTLRISRVEAEDVGVYYCAHNLELPWTFGGGTKLELK
The molecule B1 registered an ICAM-1 MFI on HRMC, 250 ng/mL rhTWEAK, mAb 0.1 µg/mL of 9620 MFI.

(Values after patent US20220289857A1.)
